Our source for the Kd and 抗体效价 values is patent publication CN112679613A.

Substitutions are numbered along the chain they refer to.

Assay [1] has as its target 肝癌Huh-7细胞 (Huh-7癌细胞抗原; Huh-7细胞裂解蛋白). Put plainly: SPR, BIAcore T-200, 1:1 Langmuir model; binding to liver cancer Huh-7 cells. (In general: SPR reads the build-up and loss of mass on a sensor chip optically.)
For assay [2] the target is unchanged. The assay is described as follows: indirect ELISA; plate coated with 2 μg/mL Huh-7 cell antigen; purified ascites antibody in 2-fold dilutions. (In general: ELISA stands for enzyme-linked immunosorbent assay.)

B1: 6G5单克隆抗体 (antibody, part only; not given: Light chain variable region, V domains shown, part only)
VH: EVKLVESGGGLVKPGGSLKLSCAASGFTFSAYAMTWVRQIPEKRLEWVAAISPTGSLYFPGSVSGRFTISRDNARNICYLQMNSLRSDDTAMYYCARGVEADSQYFDKWGQGTTLTVSS
Usually Kd stands for the constant that tells how readily two partners part at equilibrium. Read a low Kd as a tighter complex. B1 had a Kd in assay [1] of 0.34 nM. In assay [2], the 抗体效价 worked out at 5.12e+06.

B2: 2D3单克隆抗体 (antibody, V domains shown)
VH: EVKLVESGGGLVKPGGSLKLSCAASGFTFSSAAMRWVRQIPEKRLEWVARIEEGGSAYFPDSVLVRFTISRDNARNICYLQMNSLRSDDTAMYYCARSRESPAGYFKLWGQGTTLTVSS
VL: DIVLTQSPASLAVSLGQRATISCCASESVHPYGTSLAMWYQQKPGQPPKLLIYASSRVEPGVPARFSGSGSGTDFSLNIHPVEEDDIAMYFCSSSGQVPARFGAGTKLELK
For the molecule B2, the Kd in assay [1] came out at 0.23 nM. The molecule also had a 抗体效价 in assay [2] of 5.12e+06.

B3: 4D3单克隆抗体 (antibody, V domains shown)
VH: EVKLVESGGGLVKPGGSLKLSCAASGFTFSASAQSWVRQIPEKRLEWVALQSRSGSLYFPASVKQRFTISRDNARNICYLQMNSLRSDDTAMYYCARSREASGGYIDEWGQGTTLTVSS
VL: DIVLTQSPASLAVSLGQRATISCSASESGGYYGTSLMNWYQQKPGQPPKLLIYSTSNEEKGVPARFSGSGSGTDFSLNIHPVEEDDIAMYFCGQSMKRPLRFGAGTKLELK
In the case of B3, the Kd in assay [1] turned out to be 0.29 nM. The 抗体效价 in assay [2] worked out at 5.12e+06.

B4: 4D6单克隆抗体 (antibody, V domains shown)
VH: EVKLVESGGGLVKPGGSLKLSCAASGFTFSQYRMGWVRQIPEKRLEWVAEISSASSLYFPDSVKSRFTISRDNARNICYLQMNSLRSDDTAMYYCARAREADNVYFDAWGQGTTLTVSS
VL: DIVLTQSPASLAVSLGQRATISCSQSESGTYYGTSLAMWYQQKPGQPPKLLIYAASNVESGVPARFSGSGSGTDFSLNIHPVEEDDIAMYFCTASMKAPLRFGAGTKLELK
Turning to B4, the Kd in assay [1] came to 0.31 nM. This molecule displayed a 抗体效价 in assay [2] of 5.12e+06.

B5: 3E2单克隆抗体 (antibody, V domains shown)
VH: EVKLVESGGGLVKPGGSLKLSCAASGFTFSNSAMRWVRQIPEKRLEWVAVIRAGGSLYFPDRVKSRFTISRDNARNICYLQMNSLRSDDTAMYYCARGREADGGYFDYWGQGTTLTVSS
VL: DIVLTQSPASLAVSLGQRATISCAASERREYYGTSLASWYQQKPGQPPKLLIYARSNVEYGVPARFSGSGSGTDFSLNIHPVEEDDIAMYFCGSSMKRPLRFGAGTKLELK
In assay [1], B5 yielded a Kd of 0.56 nM. In assay [2], this molecule came in with a 抗体效价 of 2.56e+06.

B6: 5A3单克隆抗体 (antibody, V domains shown)
VH: B5 VH with N31R, S32Y, R35S, V50A, R52S, A53S, R62S, S65G
VL: DIVLTQSPASLAVSLGQRATISCSASESCYYYGTSLAQWYQQKPGQPPKLLIYKLSNVRGGVPARFSGSGSGTDFSLNIHPVEEDDIAMYFCRQPMKVPLKFGAGTKLELK
In assay [1], B6 came in with a Kd of 0.58 nM. Also, the 抗体效价 in assay [2] was determined as 2.56e+06.

B7: 5D7单克隆抗体 (antibody, V domains shown)
VH: EVKLVESGGGLVKPGGSLKLSCAASGFTFSDAAMRWVRQIPEKRLEWVASISSLISLYFPDSVESRFTISRDNARNICYLQMNSLRSDDTAMYYCARGAEASGGYFDQWGQGTTLTVSS
VL: B5 VL with A24S, R28H, R29P, A37M, S38A, R55S, Y60T, G93Q, S94V, R101D
The molecule B7 yielded a Kd in assay [1] of 0.45 nM. In assay [2], this molecule came in with a 抗体效价 of 5.12e+06.

B8: 6F4单克隆抗体 (antibody, V domains shown)
VH: EVKLVESGGGLVKPGGSLKLSCAASGFTFSQYASLWVRQIPEKRLEWVAAISGQGSLYFPDSVCTRFTISRDNARNICYLQMNSLRSDDTAMYYCARGAAADGGYFDTWGQGTTLTVSS
VL: DIVLTQSPASLAVSLGQRATISCSASESVEFSGTSLTRWYQQKPGQPPKLLIYASQNVEGGVPARFSGSGSGTDFSLNIHPVEEDDIAMYFCCYSMKVPPRFGAGTKLELK
B8 gave a Kd in assay [1] of 0.62 nM. In addition, the 抗体效价 in assay [2] stood at 2.56e+06.
